Test results published in PMC12395675.

B1: spike (S) protein: N514Q (protein)
parent chain: MKSLTYFWLFLPVLSTLSLPQDVTRCSANTNFRRFFSKFNVQAPAVVVLGGYLPIGENQGVNSTWYCAGQHPTASGVHGIFVSHIRGGHGFEIGISQEPFDPSGYQLYLHKATNGNTNATARLRICQFPSIKTLGPTANNDVTTGRNCLFNKAIPAHMSEHSVVGITWDNDRVTVFSDKIYYFYFKNDWSRVATKCYNSGGCAMQYVYEPTYYMLNVTSAGEDGISYQPCTANCIGYAANVFATEPNGHIPEGFSFNNWFLLSNDSTLVHGKVVSNQPLLVNCLLAIPKIYGLGQFFSFNQTIDGVCNGAAVQRAPEALRFNINDTSVILAEGSIVLHTALGTNFSFVCSNSSDPHLATFATPLGATQVPYYCFLKVDTYNSTVYKFLAILPPTVREIVITKYGDFYVNGFGYLHLGLLDAVTINFTGHGTDDDVSGFWTIASTNFVDALIEVQGTAIQRILYCDDPVSQLKCSQVSFDLDDGFYPISSRNLLSHEQPISFVTLPSFNDHSFVNITVSASFGGHSGANLIASDTTINGFSSFCVETRQFTISLFYNVTNSYGYVSKSQDSNCPFTLQSVNDYLSFSKFCVSTSLLASACTIDLFGYPEFGSGVKFTSLYFQFTKGELITGTPKPLVGVTDVSFMTLDVCTKYTIYGFKGEGIITLTNSSFLAGIYYTSDSGQLLAFKNVTSGAVYSVTPCSFSEQAAYVDDDIVGVISSLSNSTFNSTRELPGFFYHSNDGSNCTEPVLVYSNIGVCKSGSIGYVLSKSGQVKIAPTVTGNISIPTNFSMSIRTEYLQLYNTPVSVDCATYVCNGNSRCKQLLTQYIAACKTIESALQLSARLESAEVNSMLTISEEALQLATISSFNGDGYNFTNVLGVSVRDPASGRVVQKRSFIEDLLFNKVVTNGLGTVDEDYKRCSNGRSVADLVCAQYYSGVMVLPGVVDAEKLHMYSASLIGGMVLGGFTAAAALPFSYAVQARLNYLALQTDVLQRNQQLLAESFNSAIGDITSAFESVKEAISQTSKGLNTVAHALTKVQEVVNSQGAALTQLTVQLQHNFQAISSSIDDIYSRLDILSADVQVDRLITGRLSALNAFVAQTLTKYTEVQASRKLAQQKVNECVKSQSQRYGFCGGDGEHIFSLVQAAPQGLLFLHTVLVPGDFVDVIAIAGLCVNDEIALTLREPGLVLFTHELQNHTATEYFVSSRRMFEPRKPTVSDFVQIESCVVTYVNLTRDQLPDVIPDYIDVNKTLYEILASLPNRTGPSLPLDVFNATYLNLTGEIADLEQRSESLRNTTEELQSLIYNINNTLVDLEWLNRVETYIKWPWWVWLIIFIVLIFVVSLLVFCCISTGCCGCCGCCGACFAGCCRGPRLQPYEAFEKVHVQ
B2: spike (S) protein: N726Q (protein)
parent chain: B1 parent chain
B3: spike (S) protein: N62Q (protein)
parent chain: B1 parent chain
B4: spike (S) protein: N1261Q (protein)
parent chain: B1 parent chain
B5: spike (S) protein: N781Q (protein)
parent chain: B1 parent chain
B6: spike (S) protein: N556Q (protein)
parent chain: B1 parent chain
B7: spike (S) protein: N688Q (protein)
parent chain: B1 parent chain
B8: spike (S) protein: N118Q (protein)
parent chain: B1 parent chain
B9: spike (S) protein: N873Q (protein)
parent chain: B1 parent chain
B10: spike (S) protein: N344Q (protein)
parent chain: B1 parent chain
B11: spike (S) protein: N425Q (protein)
parent chain: B1 parent chain
B12: spike (S) protein: N1278Q (protein)
parent chain: B1 parent chain
B13: spike (S) protein: N1196Q (protein)
parent chain: B1 parent chain
B14: spike (S) protein: N1232Q (protein)
parent chain: B1 parent chain
B15: spike (S) protein: N300Q (protein)
parent chain: B1 parent chain
B16: spike (S) protein: N743Q (protein)
parent chain: B1 parent chain
B17: spike (S) protein: N324Q (protein)
parent chain: B1 parent chain
B18: spike (S) protein: N216Q (protein)
parent chain: B1 parent chain
B19: spike (S) protein: N381Q (protein)
parent chain: B1 parent chain
B20: spike (S) protein: N1249Q (protein)
parent chain: B1 parent chain
B21: spike (S) protein: N351Q (protein)
parent chain: B1 parent chain

assay: BAC transfection of Vero cells; CPE, western blot; conditions: glycan lost; control: rPEDV-WT

| Protein | other: virus rescue (viability), other: viruses recovered/attempts |
| --- | --- |
| B1 | no change |
| B2 | no change |
| B3 | no change |
| B4 | no change |
| B5 | no change |
| B6 | no change |
| B7 | no change |
| B8 | no change |
| B9 | abolishes |
| B10 | no change |
| B11 | abolishes |
| B12 | no change |
| B13 | no change |
| B14 | no change |
| B15 | no change |
| B16 | no change |
| B17 | no change |
| B18 | no change |
| B19 | no change |
| B20 | no change |
| B21 | no change |

assay: plaque morphology assay, ImageJ; conditions: glycan lost; control: rPEDV-WT

| Protein | other: plaque size |
| --- | --- |
| B2 | decreases |
| B8 | decreases |
| B14 | decreases |
| B18 | decreases |
| B20 | decreases |

assay: viral titre at 24 hpi, MOI 0.01; conditions: glycan lost; control: rPEDV-WT

| Protein | other: viral replication |
| --- | --- |
| B1 | no change |
| B2 | decreases |
| B3 | no change |
| B4 | no change |
| B5 | no change |
| B6 | no change |
| B7 | no change |
| B8 | decreases |
| B10 | no change |
| B12 | no change |
| B13 | no change |
| B14 | decreases |
| B15 | no change |
| B16 | no change |
| B17 | no change |
| B18 | decreases |
| B19 | no change |
| B20 | decreases |
| B21 | no change |

assay: oral challenge; fecal scores, gross necropsy; conditions: glycan lost; control: rPEDV-WT

| Protein | other: virulence in animals |
| --- | --- |
| B2 | decreases |
| B8 | decreases |
| B14 | decreases |
| B18 | decreases |
| B20 | decreases |

assay: RT-qPCR of intestinal tissues at 5 dpc; conditions: glycan lost; control: rPEDV-WT

| Protein | other: intestinal viral load |
| --- | --- |
| B2 | no change |
| B8 | no change |
| B14 | decreases |
| B18 | no change |
| B20 | decreases |

assay: viral titre in LLC-PK1 cells; conditions: glycan lost; control: rPEDV-WT

| Protein | other: viral replication |
| --- | --- |
| B2 | decreases |
| B8 | decreases |
| B14 | decreases |
| B18 | decreases |
| B20 | decreases |

assay: 37 °C 30 min, citrate wash, RT-qPCR; conditions: glycan lost; control: rPEDV-WT

| Protein | other: viral internalization |
| --- | --- |
| B8 | decreases |
| B14 | decreases |
| B18 | decreases |

assay: CHX chase, anti-Flag western blot, 293T; conditions: glycan lost; control: WT S protein

| Protein | degradation_or_half_life |
| --- | --- |
| B2 | no change |
| B8 | no change |
| B14 | no change |
| B18 | no change |
| B20 | no change |

assay: anti-PEDV N immunofluorescence of intestine sections; conditions: glycan lost; control: rPEDV-WT

| Protein | other: intestinal viral antigen |
| --- | --- |
| B14 | abolishes |
| B20 | abolishes |

assay: 4 °C binding, RT-qPCR of PEDV N; conditions: glycan lost; control: rPEDV-WT

| Protein | other: viral attachment |
| --- | --- |
| B8 | decreases |
| B14 | no change |
| B20 | no change |

assay: H&E staining of intestine at 5 dpc; conditions: glycan lost; control: rPEDV-WT

| Protein | other: intestinal histopathology |
| --- | --- |
| B14 | abolishes |
| B20 | abolishes |

assay: RT-qPCR of rectal swabs; conditions: glycan lost; control: rPEDV-WT

| Protein | other: faecal viral shedding |
| --- | --- |
| B14 | decreases |
| B20 | decreases |
